# Measurements from US20240352438A1, “MEANS AND METHODS FOR DETOXIFYING OCHRATOXIN A” (DSM Austria GmbH, priority 2021, published 2024).
# Test: OTA detoxification activity assay (specific activity, fluorescence reduction ex/em 390/450 nm)
# Type: biochemical
# Settings: SEQ ID NO: 1 = 100%
# How it was run: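 Recombinant enzyme preparation with 200 ng/mL OTA in 100 mM sodium phosphate, at pH 6.0 and pH 7.5, 37° C. Degradation followed as the fall in fluorescence at ex/em 390/450 nm. Specific activity taken from the initial linear slope; one unit degrades 1 μmol OTA per min at a starting OTA of […].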
Molecule,"Specific OTA detoxification activities in % compared to the enzyme of SEQ ID NO: 1, pH 6.0 [%]","Specific OTA detoxification activities in % compared to the enzyme of SEQ ID NO: 1, pH 7.5 [%]"
"134 (protein, exemplary polypeptide) MTTRTRILTAFLSLLAANACAADAAPAAPHTVVLRAARMFDGASGKLVDHPQLTIVGNKIVRIAQGDKAEVPAGAEVVDLGDATLLPGFIDAHVHLSGQSSDNWYGDFFDDMMRFPAEQALYGAYYARITLEAGFTSVRDVGSTDWVALGLRNAIDAGKVPGPRMLVSNYAVGSTGGHADQDPIPPHKLPLAGPLQGVCNGPEECRAAVRYQIKYGANVIKFMPSGGVLSLSDPVDAPELSQDEMNAVIGESHAWGRKVAAHAHGDKAAKMAVAAGVDSIEHGSFIEDDTLRAMKAKNVYLVPTISAIAHVEEKIGTFPPVIAEKGRAAAAHLRQTFRHAVQIGVPIALGTDAGVGAHGSNAREFRYMVENGLTPAQALLAGTANAARLLGTFDRVGTLEAGKLADVVAVPGNPIADITVTERPLFVMKDGVVVRRDAVR",41,52
"135 (protein, exemplary polypeptide) MTTRTRILTAFLSLLAANACAADAAPAAPHTVVLRAARMFDGASGKLVDHPQLTIVGNKIVRIAQGDKAEVPAGAEVVDLGDATLLPGFIDAHVHLSGQSSDNWYGDFFDNMMRFPAEQALYGAYYARITLEAGFTSVRDVGSTDWVALGLRNAIDAGKVPGPRMLVSNYAVGSTGGHADQDPIPPHKLPLAGPLQGVCNGPEECRAAVRYQIKYGANVIKFMPSGGVLSLSDPVDAPELSQDEMNAVIGESHAWGRKVAAHAHGDKAAKMAVAAGVDSIEHGSFIEDDTLRAMKAKNVCLVPTISAIAHVEEKIGTFPPVIAEKGRAAAAHLRQTFRHAVQIGVPIALGTDAGVGAHGSNAREFRYMVENGLTPAQALLAGTANAARCLGTFDRVGTLEAGKLADVVAVPGNPIADITVTERPLFVMKDGVVVRRDAVR",68,70
"149 (protein, exemplary polypeptide) MTTRTRILTAFLSLLAANACAADAAPAAPHTVVLRAARMFDGASGKLVDHPQLTIVGNKIVRIAQGDKAEVPAGAEVVDLGDATLLPGFIDAHVHLSGQSSDNWYGDFFDNMMRFPAEQALYGAYYARITLEAGFTSVRDVGSTDWVALGLRNAIDAGKVPGPRMLVSNYAVGSTGGHTDQDPIPPHKLPLAGPLQGVCNGPEECRAAVRYQIKYGANVIKFMPSGGVLSLSDPVDAPELSQDEMNAVIGESHAWGRKVAAHAHGDKAAKMAVAAGVDSIEHGSFIEDDTLRAMKAKNVYLVPTISAIAHVEEKIGTFPPVIAEKGRAAAAHLRQTFRHAVQIGVPIALGTDAGVGAHGSNAREFRYMVENGLTPAQALLAGTANAARLLGTFDRVGTLEAGKLADVVAVPGNPIADITVTERPLFVMKDGVVVRRDAVR",30,13
"142 (protein, exemplary polypeptide) MTTRTRILTAFLSLLAANACAADAAPAAPHTVVLRAARMFDGASGKLVDHPQLTIVGNKIVRIAQGDKAEVPAGAEVVDLGDATLLPGFIDAHVHLSGQSSDNWYGDFFDNMMRFPAEQALYGAYYARITLEAGFTSVRDVPSTDWVALGLRNAIDAGKVPGPRMLVSNYAVGSTGGHADQDPIPPHKLPLAGPLQGVCNGPEECRAAVRYQIKYGANVIKFMPSGGVLSLSDPVDAPELSQDEMNAVIGESHAWGRKVAAHAHGDKAAKMAVAAGVDSIEHGSFIEDDTLRAMKAKNVYLVPTISAIAHVEEKIGTFPPVIAEKGRAAAAHLRQTFRHAVQIGVPIALGTDAGVGAHGSNAREFRYMVENGLTPAQALLAGTANAARLLGTFDRVGTLEAGKLADVVAVPGNPIADITVTERPLFVMKDGVVVRRDAVR",34,8
